Laboratory results published in paper PMC7509637 (Advanced Science, 2020).
Entries after “also recorded” stand apart in the source; their conditions may differ.

Key:
[1] = molecular target: T1, Aβ (Homo sapiens, UniProt P05067); test: ThT kinetic assay of Aβ fibrillization (seeding with FapC species, Aβ seeds, bLgS); format: biochemical; details: 37 °C, n = 3; for effect on Aβ fibrillization (ThT): Aβ 50 × 10^−6 M, seeds/FapC species 5 × 10^−6 M, ThT fluorescence ex 445/em 485 nm; for effect on rate constant k of Aβ (in words): 5 × 10^−6 M with Aβ 50 × 10^−6 M, FapCS *, p < 0.05, FapC monomer and fibrils **, p < 0.005
T1 construct: purchased Anaspec Inc
Experimental: FapC seeds (FapCS) were produced by FapC fibrils of three different ages. The FapC monomers were produced as described^[ ^45 ^] and stored in 6 M GdmCl. Prior to fibrillization, the FapC monomers were purified via a PD10 desalting column. FapC monomers (1 mg mL^−1 or 40 × 10^−6 M) were incubated in deionized water at 37 °C for 1 week to produce mature fibrils and at 37 °C or 25 °C for 4 d to obtain young fibrils. Deionized water was used to make FapC fibrils as it is convenient to transfer the samples to other experimental conditions, i.e., buffered Aβ solution or PBS for in vivo microinjection. However, bacterial amyloids like FapC and curli can make amyloids over a range of conditions.^[ ^93 ^] FapCS were produced by sonicating an aqueous solution of FapC fibrils (10 × 10^−6 M) at 20 power of a probe sonicator (Sonics Vibracell: 750 watts and 20 kHz) for 2 min with 1 s on/off cycle. For in vitro cross‐seeding experiments, 50 × 10^−6 M of Aβ monomers were incubated with 5 × 10^−6 M of FapCS (10:1 molar ratio, Aβ:FapCS) at 37 °C. bLg amyloids were synthesized by heating of bLg monomers (80 °C, pH 2) of 10 mg mL^−1 solution for 24 h. Prior to the production of bLgS, the bLg amyloid solution was brought to pH 7 and then sonicated, similar to FapC, to generate bLgS.
Aβ (Anaspec Inc., purity ≥ 95%) was dissolved in 100 µL of hexafluoro‐2‐propanol (HFIP) and incubated at room temperature for 3 h. The acquired aliquots of this solution were freeze dried and stored at −20 °C for further experimentation. […] For the ThT kinetic assay, a 100 µL of aqueous solution containing Aβ (50 × 10^−6 M), FapCS or bLgS (5 × 10^−6 M) and ThT dye (100 × 10^−6 M) was incubated (37 °C) in a 96‐well plate. The ThT fluorescence (excitation: 445 nm/ emission: 485 nm) was recorded at specified time intervals for 50 h. Kinetic parameters (rate constant k, half‐life t 1/2 and lag‐time) were calculated as described.^[ ^94 ^] Briefly, kinetic curves were fitted to a sigmoidal curve =y0+ymax−y0/1+e^−(t−t1/2)k , where y 0 and y max are initial and final ThT fluorescence values, allowing us to calculate lag time = t 1/2 − 2/k.

[2] = molecular target: T1, Aβ; test: Static light scattering (SLS) of Aβ fibrillar growth; format: biochemical; details: ratio as for ThT assay, Malvern Zetasizer Nano, n = 3
Experimental: Increases in the size of Aβ in the presence and absence of FapCS or bLgS were monitored by SLS. Solution of Aβ with FapCS or bLgS, at a similar ratio as for the ThT assay, was prepared and incubated. SLS measurements were performed at different time intervals using a Malvern Zetasizer Nano. The parameters were fixed at 7 for attenuator and 4.20 mm for cell position. Quartz cells with low volume capacity (100 µL) were used. The light scattering intensities (kilo counts per sec) and the refractive indices of the samples, buffer alone and toluene were measured.

[3] = molecular target: T1, Aβ; test: TEM imaging of Aβ with FapC species or bLgS; details: 12 h incubation, uranyl acetate negative stain
Experimental: (§1) Aβ incubated in the presence or absence of FapCS, FapC monomers, FapC fibrils or bLgS were subjected to TEM imaging. After incubation for 12 h, a drop of sample was applied on a glow‐discharged carbon‐coated copper grid. After 1 min, the sample was blotted and then negatively stained with uranyl acetate (1%) for 30 s. The dried grid was then imaged with a Technei F20 TEM at 200 kV. For AFM, a drop of sample was placed on freshly cleaved mica surface and rinsed with water after 2 min and dried with pressurized air. The sample was scanned with an AFM (Nanoscope VIII Multimode Scanning Force Microscopes, Bruker), covered with an acoustic hood to minimize the vibrational noise. Images were acquired under the tapping mode with a silicon nitride cantilever (Bruker). AFM images were processed with Nanoscope Analysis 1.5 software to flatten the background and to calculate the statistical parameters.

[4] = molecular target: T1, Aβ; test: Circular dichroism spectroscopy, secondary structure; details: incubation with Aβ, Figure S7
Experimental: Solutions of 200 µL, at similar molar ratios as for ThT assay, were prepared and incubated at 37 °C. CD spectra for different samples at 0, 12 and 48 h were measured with a CD spectrophotometer (Jasco) from 190 to 240 nm (1 nm step size). The percentage secondary structure was calculated by the CD data via Dichroweb analysis with parameters of Contin/reference set 4.^[ ^95 ^]

[5] = tested on: Aβ monomers; test: Isothermal titration calorimetry (ITC); format: binding; details: Aβ 200 × 10^−6 M into 20 × 10^−6 M seeds, 0.1% NH4OH, 25 °C
Experimental: ITC (Malvern MicroCal iTC200) was used to explore the interaction between Aβ monomers and oligomers (Aβo) with FapCS. Sample solutions were degassed at 25 °C while stirring (100 rpm). Aβ (200 × 10^−6 M, 40 µL) was filled into the syringe while FapCS or bLgS (20 × 10^−6 M, 200 µL) were filled in the cell (coin shaped). 0.1% NH4OH buffer solution was used for both solutions. Aβ was injected into the cell at an injection volume of 2 µL at the duration of 4 s and with a spacing of 180 s. First injection was 0.2 µL for 0.4 s duration and a total of 16 injections were programed. The heat exchange was recorded with a Microcal analysis (origin v7) software. The heat of dilution (Aβ against buffer) was subtracted from the interaction heat of samples. The acquired curves were fitted to a sequential binding model and thermodynamic parameters of binding energy (ΔH), free energy (ΔG), and entropic factor (TΔS) were calculated. Aβo for the ITC experiments was prepared by incubating Aβ aqueous solution (200 × 10^−6 M) at 4 °C for 48 h.^[ ^65 ^]

[6] = tested on: Aβ fibrils; test: AFM of fibrils, FiberApp statistical analysis
Experimental: as §1

| Molecule | effect on Aβ fibrillization (ThT) [1] | Aβ fibrillar growth by SLS [2] | TEM observation [3] | effect on secondary structure (in words) [4] | binding to Aβ by ITC (in words) [5] | effect on rate constant k of Aβ (in words) [1] | pitch size of fibrils ([6]; FiberApp) [nm] | fibril diameter ([6]; from fibril heights, mean ± SD) [nm] |
| --- | --- | --- | --- | --- | --- | --- | --- | --- |
| bLgS: seeds from whey protein β‐lactoglobulin amyloids by sonication [reference compound] | did not render any acceleration of Aβ fibrillization | did not render any acceleration of Aβ fibrillization | did not render any acceleration of Aβ fibrillization | did not induce β‐sheet formation in Aβ; also recorded: α‐helical and random‐coil structures of bLgS were slightly increased | Insubstantial binding | – | – | – |
| FapC monomers: monomeric FapC, purified via a PD10 desalting column (protein) GNEGGWHPPKPNPQSNNKGGATALVVDTQQNYNNKVSNFGTLNNASVSGSIKDASGNVGVNVAAGDNNQQANAAALASADASFVFGTATASTSVLQSGYGNTLNNYSNPNTASLSNSANNVSGNLGVNVAAGNFNQQKNDLAAAVSNGQYSTAGSAASQTSTGNTTVNSANYAYGGTYVSLKLNADGSYKGTSDQIGDVYLDTWEGQTHPGGSNTGHIDVDSQAQGAKDLNHDGGAFAFKEKGDVDLKGTVSGFIPAIVGFKTPVTNNASLSNSLQNVSGNVGVNIAAGGGNQQSNSLSIAAGCSSCPAGGESLGF | lacked such acceleratory effect | – | appeared to aggregate on top of Aβ fibrils | – | – | significantly suppressed | – | – |
| FapCS derived from younger FapC fibrils: seeds from FapC fibrils fibrillated for 4 d at 37 °C and 25 °C (protein, UniProt Q9I2F0 25-340, looked up, sonicated fibril seeds, seeds from FapC fibrils fibrillated for 4 d at 37 °C and 25 °C) Functional amyloid subunit …: GNEGGWHPPKPNPQSNNKGGATALVVDTQQNYNNKVSNFGTLNNASVSGSIKDASGNVGVNVAAGDNNQQANAAALASADASFVFGTATASTSVLQSGYGNTLNNYSNPNTASLSNSANNVSGNLGVNVAAGNFNQQKNDLAAAVSNGQYSTAGSAASQTSTGNTTVNSANYAYGGTYVSLKLNADGSYKGTSDQIGDVYLDTWEGQTHPGGSNTGHIDVDSQAQGAKDLNHDGGAFAFKEKGDVDLKGTVSGFIPAIVGFKTPVTNNASLSNSLQNVSGNVGVNIAAGGGNQQSNSLSIAAGCSSCPAGGESLGF | accelerated Aβ fibrillization (Figure S3, Supporting Information), but less than the seeds derived from mature FapC fibrils | – | – | – | – | – | – | – |
| FapC fibrils: FapC incubated in deionized water at 37 °C for 1 week, nonsonicated fibrils (protein) GNEGGWHPPKPNPQSNNKGGATALVVDTQQNYNNKVSNFGTLNNASVSGSIKDASGNVGVNVAAGDNNQQANAAALASADASFVFGTATASTSVLQSGYGNTLNNYSNPNTASLSNSANNVSGNLGVNVAAGNFNQQKNDLAAAVSNGQYSTAGSAASQTSTGNTTVNSANYAYGGTYVSLKLNADGSYKGTSDQIGDVYLDTWEGQTHPGGSNTGHIDVDSQAQGAKDLNHDGGAFAFKEKGDVDLKGTVSGFIPAIVGFKTPVTNNASLSNSLQNVSGNVGVNIAAGGGNQQSNSLSIAAGCSSCPAGGESLGF | lacked such acceleratory effect; also recorded: significantly suppressed | – | did not coat FapC fibrils | – | – | significantly suppressed | 26 | 3.6 ± 1.0 |
